Measured values reported in US9133271 (AbbVie / Abbott, dated 2015).

How the values were obtained:
[1] = molecular target: T1, murine DLL3 on 293 cells (h293-mDLL3) (murine, UniProt O88516 33-584); test: assay and form of the mouse antigen not given on the sheet; table of properties of humanized constructs
T1 sequence: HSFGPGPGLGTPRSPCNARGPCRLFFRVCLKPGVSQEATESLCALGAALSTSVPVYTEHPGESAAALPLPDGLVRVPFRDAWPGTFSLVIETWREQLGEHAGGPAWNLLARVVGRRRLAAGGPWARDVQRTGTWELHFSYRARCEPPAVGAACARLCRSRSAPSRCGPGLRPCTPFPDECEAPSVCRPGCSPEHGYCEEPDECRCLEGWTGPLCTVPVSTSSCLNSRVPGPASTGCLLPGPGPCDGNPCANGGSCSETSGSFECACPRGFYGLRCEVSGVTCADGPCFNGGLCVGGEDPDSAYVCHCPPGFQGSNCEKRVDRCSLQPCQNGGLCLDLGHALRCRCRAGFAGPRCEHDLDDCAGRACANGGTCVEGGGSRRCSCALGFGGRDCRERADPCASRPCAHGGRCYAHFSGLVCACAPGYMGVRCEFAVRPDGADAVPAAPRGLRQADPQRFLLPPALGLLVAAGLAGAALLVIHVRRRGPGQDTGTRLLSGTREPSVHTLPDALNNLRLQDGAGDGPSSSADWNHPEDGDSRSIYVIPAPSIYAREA

[2] = molecular target: T2, human DLL3 on cells (h293-hDLL3 cells; endogenous DLL3 on NTX tumor cells) (human, UniProt Q9NYJ7 27-618); test: cell-based or functional assay
T2 sequence: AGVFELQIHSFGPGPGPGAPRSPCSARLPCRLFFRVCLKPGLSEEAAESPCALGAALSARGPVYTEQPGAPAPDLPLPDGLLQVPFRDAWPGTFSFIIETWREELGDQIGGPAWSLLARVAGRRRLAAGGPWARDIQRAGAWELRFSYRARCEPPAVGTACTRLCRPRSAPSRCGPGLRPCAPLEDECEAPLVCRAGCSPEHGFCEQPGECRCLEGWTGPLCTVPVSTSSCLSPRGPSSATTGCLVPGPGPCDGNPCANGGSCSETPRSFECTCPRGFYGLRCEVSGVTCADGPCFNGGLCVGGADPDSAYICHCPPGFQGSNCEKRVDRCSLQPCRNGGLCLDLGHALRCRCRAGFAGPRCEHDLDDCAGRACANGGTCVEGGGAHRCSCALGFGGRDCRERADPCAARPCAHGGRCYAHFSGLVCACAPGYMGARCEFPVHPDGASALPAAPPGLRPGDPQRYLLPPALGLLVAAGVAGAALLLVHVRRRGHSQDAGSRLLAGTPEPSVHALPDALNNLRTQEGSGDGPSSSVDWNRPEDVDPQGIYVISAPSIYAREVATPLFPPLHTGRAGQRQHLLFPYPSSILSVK

[3] = molecular target: T2, human DLL3 on cells (h293-hDLL3 cells; …); test: cell-based or functional assay; remark: listed apart in the source
[4] = molecular target: T1, murine DLL3 on 293 cells (h293-mDLL3); test: flow cytometry on 293 cells over-expressing murine DLL3

B1: hSC16.25 (antibody, V domains shown)
VL: EIVLTQSPDFQSVTPKEKVTITCSASSSVSYMHWYQQKPDQSPKLLIKDSSKLASGVPSRFSGSGSGTDFTLTINSLEAEDAATYYCQQWSSNPLTFGQGTKLEIK
V domain: QITLKESGPTLVKPTQTLTLTCTFSGFSLSTSGMGVGWIRQPPGKALEWLTDIWWDDNKYYNPSLKSRLTITKDTSKNQVVLTMTNMDPVDTATYYCARRVNYYYDPYYAMDYWGQGTTLVTVS
notes: CDR-grafted humanized antibody; also called humanized SC16.25
binding result [1]: no binding

B2: SC16.10 (antibody, V domains shown)
VH: QVTLKESGPGILQSSQTLSLTCSFSGFSLSTSGMGVGWIRQPSGKGLEWLAHIWWDDVKRYNPVLKSRLTISKDTSSSQVFLKIASVDTADTATYYCARLVDDLYYFDYWGQGTTLTVSS
VL: QIVLTQSPAIMSASLGERVTMTCTASSSVSSSYLHWYQQKPGSSPKLWIYSTSNLASGVPTRFSGSGSGTSYSLTISSMEAEDAATYYCHQYHRSPFTFGSGTKLEIK
% Live Cells (in vitro), KDY66 cells, antibody plus anti-mouse IgG Fab-saporin [2]: 18%

B3: SC16.4 (antibody, V domains shown)
VH: QIQLVQSGPELKKPGETVKISCKASGYTFTDYSMHWVKQAPGKGLKWMGWINTETGEPGYADDFKGRFAFSLETSASTAYLQINNLKNEDTATYFCARYDGYAMDYWGQGTSVTVSS
VL: DIQMTQTTSSLSASLGDRVTISCRASQDISNYLNWYQQKPDGTVKLLIYYTSRLHSGVPSRFSGSGSGTDYSLTISNLELEDIATYFCQQGDMLPWTFGGGTKLEIK
% Live Cells (in vitro), KDY66 cells, antibody plus anti-mouse IgG Fab-saporin [2]: 49%

B4: SC16.39 (antibody, V domains shown)
VH: EVKLEESGGGLVQFGGSMKLSCAASGFTFSDAWMDWVRQSPEKGLEWVAEIRNKANNHATYYPESVKGRFTISRDDSKSRVYLQMNNLRAEDTGIYYCTGYSSFAYWGQGTLVTVSA
VL: DIQMTQTTSSLSASLGDRVTISCRASQDVINYLNWYQQKPDGTVKLLIYYTSRLHSGVPSRFSGSGSRTDYSLTISNLEPEDIATYYCQQYSERPYTFGGGTKLEIK
% Live Cells (in vitro), KDY66 cells, antibody plus anti-mouse IgG Fab-saporin [2]: 98%

B5: SC16.8 (antibody, V domains shown)
VH: QAQLQQSGAELVRPGTSVKVSCKASGYAFTNYLIEWVKQRPGQGLEWIGVINPGTGGTNYNENFKGKATLTADKSSSTAYMQLSSLTSDDSAVYFCARSPYDYHEGAMDYWGQGTSVTVSS
VL: EIQMTQSPSSMSASLGDRITITCQATQDIVKNLNWYQQKPGKPPSFLIYYAIELAEGVPSRFSGSGSGSDYSLTISNLESEDFADYYCLQFYEFPFTFGAGTKLELK
% Live Cells (in vitro), KDY66 cells, antibody plus anti-mouse IgG Fab-saporin [2]: 82%

B6: SC16.25 (antibody, V domains shown)
VH: QVTLKESGPGILQPSQTLSLTCSFSGFSLSTSGMGVGWIRQPSGEGLEWLTDIWWDDNKYYNPSLKSRLTISKDTSSNQVFLNITSVDTADTATYYCARRVNYYYDPYYAMDYWGQGTSVTVSS
VL: QIVLTQSPAIMSASPGEKVTMTCSASSSVSYMHWYQQKSGTSPKRWIYDSSKLASGVPARFSGSGSGTSYSLTISSMEAEDAATYYCQQWSSNPLTFGAGTKLELK
% Live Cells (in vitro), KDY66 cells, antibody plus anti-mouse IgG Fab-saporin [2]: 28%

B7: SC16.15 (antibody, V domains shown)
VH: QVQLQQSGAELAKPGASVKMSCKASGYTFTRYWIHWIKQRPGQGLEWIGYINPTTVYTEFNQNFKDKATLTADKSSTTASMQLSSLTSEDSAVYYCARGGSNFFDYWGQGTTLTVSS
VL: DIQMTQSPASLAASVGETVAITCRASENIYYNLAWYQQKQGKSPQLLIYTANSLEDGVPSRFSGSGSGTQYSLKINSMQPEDSATYFCKQAYDVPPTFGGGTKLEIK
% Live Cells (in vitro), KDY66 cells, antibody plus anti-mouse IgG Fab-saporin [2]: 24%
EC50 of killing of OV26 NTX tumor cells with anti-mouse IgG Fab-saporin [3]: 0.14 pM

B8: SC16.65 (antibody, V domains shown)
VH: QVTLKESGPGILQPSQTLSLTCSFSGFSLSTSGMGVGWIRQPSGKGLEWLALIWWDDVKRYNPALKSRLTISKDASSSQVFLKIASVDTADTATYYCARIASYDYDVVYAMDYWGQGTSVSVSS
VL: QIVLTQSPALMSASPGEKVTMTCSVTSSVSYMYWYQQKPRSSPKPWIYLTSNLASGVPARFSGSGSGTSYSLTISSVEAEDAATYYCQQWRNNPFTFGSGTKVEIK
% Live Cells (in vitro), KDY66 cells, antibody plus anti-mouse IgG Fab-saporin [2]: 13%

B9: SC16.13 (antibody, V domains shown)
VH: QVTLKESGPGILQPSQTLSLTCSFSGFSLSTSGMGVGWIRQPSGKGLEWLAHIWWDDVKRYNPALKSRLTISKDTSSSQVFLKIASVDTADTATYYCARIVSFDNDVVSAMDYWGQGTSVTVSS
VL: QIVLTQSPALVSASPGEKVTMTCSASSSVSYMYWYQQKPRSSPKPWIYLTSNLASGVPARFSGSGSGTSYSLTISSMEAEDAATYYCQQWRSNPFTFGSGTKLEIK
% Live Cells (in vitro), KDY66 cells, antibody plus anti-mouse IgG Fab-saporin [2]: 31%

B10: SC16.34 (antibody, V domains shown)
VH: QIQLVQSGPELKRPGETVKISCKASGYTFTNYGMNWVKQAPGKGLKWMGWINTYTGDPTYADDFKGRFAFSLETSASTAYLQINNLKNEDTATYFCARIGGNSPSDYWGQGTSLTVSS
VL: SIVMTQTPKFLLVSAGDRVTITCKASQSVSNDVAWYQQKPGQSPKLLIYYASNRYSGVPDRFTGSGYGTDFTFTISTVQAEDLAVYFCQQDYSSPWTFGGGTKLEIK
% Live Cells (in vitro), KDY66 cells, antibody plus anti-mouse IgG Fab-saporin [2]: 12%
EC50 of killing of OV26 NTX tumor cells with anti-mouse IgG Fab-saporin [3]: 5.7 pM

B11: SC16.56 (antibody, V domains shown)
VH: QIQLVQSGPELKKPGETVKISCKASGYTFTNYGMNWVKQAPGKGLKWMAWINTYTGEPTYADDFKGRFAFSLETSASTASLQIINLKNEDTATYFCARIGDSSPSDYWGQGTTLTVSS
VL: SIVMTQTPKFLLVSAGDRVTITCKASQSVSNDVVWYQQKPGQSPKLLIYYASNRYTGVPDRFAGSGYGTDFSFTISTVQAEDLAVYFCQQDYTSPWTFGGGTKLEIR
% Live Cells (in vitro), KDY66 cells, antibody plus anti-mouse IgG Fab-saporin [2]: 16%

B12: hSC16.13 (antibody, V domains shown)
VH: QITLKESGPTLVKPTQTLTLTCTFSGFSLSTSGMGVGWIRQPPGKALEWLAHIWWDDVKRYSPSLKSRLTITKDTSKNQVVLTMTNMDPVDTATYYCARIVSFDNDVVSAMDYWGQGTLVTVSS
VL: DIQMTQSPSSLSASVGDRVTITCSASSSVSYMYWYQQKPGKAPKLLIYLTSNLASGVPSRFSGSGSGTDFTLTISSLQPEDFATYYCQQWRSNPFTFGQGTKLEIKR
notes: CDR-grafted humanized antibody; also called humanized SC16.13
binding result [1]: no binding

B13: SC16.67 (antibody, V domains shown)
VH: EVQLVETGGGLVQPKGSLKLSCAVSAFTFTTYAMNWVRQAPGKGLEWVARIRNKSNNYATYYADSVKDRFTISRDDSQSMLYLQMNNLKIEDTAMYYCVFYYDYVYWGQGTLVTVSA
VL: QAVVTQESALTTSPGETVTLTCRSSTGAVTTSNYANWIQEKPDHLFTGLIGGTNNRAPGVPARFSGSLIGDKAALTITGAQTEDEAIYFCGLWYSNHLVFGGGTKLTVL
notes: murine anti-DLL3 mAb
% Live Cells (in vitro), KDY66 cells, antibody plus anti-mouse IgG Fab-saporin [2]: 37%
binding result [4]: no binding
